The target of this data set is T1, AP2-G D1 (Plasmodium falciparum, UniProt Q8I5I9 2123-2245).
T1 sequence: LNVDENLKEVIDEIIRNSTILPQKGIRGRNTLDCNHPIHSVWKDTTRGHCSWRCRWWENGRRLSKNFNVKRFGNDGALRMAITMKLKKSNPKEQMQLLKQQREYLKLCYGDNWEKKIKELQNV
Briefly: gcPBM; about 25 ug protein; PBS, 1% milk, 0.2 mg/ml BSA, salmon testes DNA, 0.03% Triton X-100. As to conditions: tags: N-terminal GST (pGEX-4T-1), kept; label: surface-attached array probe.

Binding signal data for 30 molecules are collected here from PMC11417369, “DNA sequence and chromatin differentiate sequence-specific transcription factor binding in the human malaria parasite Plasmodium falciparum”.

B1: XGTACX_negctrl_site224 (dsDNA)
DNA 1: TTGTTTCTTAAATTATTTATTTTATATTAAAAAAAA
DNA 2: TTTTTTTTAATATAAAATAAATAATTTAAGAAACAA
B1: the binding signal is 9.8 ln median PBM intensity, better of two orientations.

B2: XGTACX_negctrl_site66 (dsDNA)
DNA 1: TTTTGAGAAAAAATAAAATAATAAATAAAAATACAT
DNA 2: ATGTATTTTTATTTATTATTTTATTTTTTCTCAAAA
As to B2, the binding signal was 9.8 ln median PBM intensity, better of two orientations.

B3: XGTACX_negctrl_site546 (dsDNA)
DNA 1: AGCCCTTTTTTTTTTTAGAATATTGCATAATTATAT
DNA 2: ATATAATTATGCAATATTCTAAAAAAAAAAAGGGCT
As for B3, the binding signal is 9.79 ln median PBM intensity, better of two orientations.

B4: XGTACX_negctrl_site595 (dsDNA)
DNA 1: TTATATTATGTTCAATCAAAAATTATTTTTAAAAAA
DNA 2: TTTTTTAAAAATAATTTTTGATTGAACATAATATAA
With B4, the binding signal is 9.82 ln median PBM intensity, better of two orientations.

B5: XGTACX_negctrl_site448 (dsDNA)
DNA 1: ATATAAGATTACAAAAATTATGTGTAAATATTTAAT
DNA 2: ATTAAATATTTACACATAATTTTTGTAATCTTATAT
For the molecule B5, the binding signal was 9.81 ln median PBM intensity, better of two orientations.

B6: XGTACX_negctrl_site268 (dsDNA)
DNA 1: AAAACAAATTTTAATGAGAATATGAAAAAAAAATAT
DNA 2: ATATTTTTTTTTCATATTCTCATTAAAATTTGTTTT
On to B6, for which the binding signal is 9.74 ln median PBM intensity, better of two orientations.

B7: XGTACX_negctrl_site149 (dsDNA)
DNA 1: AGAATTTAGAAACAATGTTGTATATGTAATACCTTT
DNA 2: AAAGGTATTACATATACAACATTGTTTCTAAATTCT
Consider B7, for which the binding signal is 9.82 ln median PBM intensity, better of two orientations.

B8: XGTACX_negctrl_site480 (dsDNA)
DNA 1: TTGATAAAAAAAAAAAAATAAAAAAAAAATAAAAAA
DNA 2: TTTTTTATTTTTTTTTTATTTTTTTTTTTTTATCAA
Turning to B8, the binding signal is 9.72 ln median PBM intensity, better of two orientations.

B9: XGTACX_negctrl_site279 (dsDNA)
DNA 1: TTTTTACTATAAGGGGAAAAAAAAAAAAATAATATA
DNA 2: TATATTATTTTTTTTTTTTTCCCCTTATAGTAAAAA
Turning to B9, the binding signal is 9.81 ln median PBM intensity, better of two orientations.

B10: XGTACX_negctrl_site102 (dsDNA)
DNA 1: TTCTTTTTATTTATATTTTCCCCTCTCTATAGCTAT
DNA 2: ATAGCTATAGAGAGGGGAAAATATAAATAAAAAGAA
Take B10: the binding signal is 9.73 ln median PBM intensity, better of two orientations.

B11: XGTACX_negctrl_site421 (dsDNA)
DNA 1: TATAAGAGAAGAAGAAAAAAAAGGTTTCTATAGAAA
DNA 2: TTTCTATAGAAACCTTTTTTTTCTTCTTCTCTTATA
In the case of B11, the binding signal was 9.78 ln median PBM intensity, better of two orientations.

B12: XGTACX_negctrl_site507 (dsDNA)
DNA 1: ATAAAAAATAAATATATACATACATACATACATATA
DNA 2: TATATGTATGTATGTATGTATATATTTATTTTTTAT
Consider B12, for which the binding signal is 9.8 ln median PBM intensity, better of two orientations.

B13: XGTACX_negctrl_site190 (dsDNA)
DNA 1: AATAGAAACATTTTACATGTATATATAATTTTTTTT
DNA 2: AAAAAAAATTATATATACATGTAAAATGTTTCTATT
On to B13, for which the binding signal is 9.8 ln median PBM intensity, better of two orientations.

B14: XGTACX_negctrl_site277 (dsDNA)
DNA 1: TTATTTTACTTTTATGCAACTAAAAATATTGCTATA
DNA 2: TATAGCAATATTTTTAGTTGCATAAAAGTAAAATAA
For the molecule B14, the binding signal is 9.82 ln median PBM intensity, better of two orientations.

B15: XGTACX_negctrl_site331 (dsDNA)
DNA 1: AAGGAATAAAATTTAGAAGACAATTTTATTTCAGTA
DNA 2: TACTGAAATAAAATTGTCTTCTAAATTTTATTCCTT
In the case of B15, the binding signal was 9.81 ln median PBM intensity, better of two orientations.

B16: XGTACX_negctrl_site181 (dsDNA)
DNA 1: ATTCGTAGTTTTATGAATTAATATAATAAAAATTAA
DNA 2: TTAATTTTTATTATATTAATTCATAAAACTACGAAT
For B16, the binding signal was 9.77 ln median PBM intensity, better of two orientations.

B17: XGTACX_negctrl_site614 (dsDNA)
DNA 1: TAATTCGCAAAAGAAAGAAATTAAGAAAAAGAAAAA
DNA 2: TTTTTCTTTTTCTTAATTTCTTTCTTTTGCGAATTA
In the case of B17, the binding signal is 9.81 ln median PBM intensity, better of two orientations.

B18: XGTACX_negctrl_site188 (dsDNA)
DNA 1: AAAGTATAACGGATACCATTTATGTGATTATTTTGT
DNA 2: ACAAAATAATCACATAAATGGTATCCGTTATACTTT
Consider B18, for which the binding signal is 9.78 ln median PBM intensity, better of two orientations.

B19: XGTACX_negctrl_site180 (dsDNA)
DNA 1: TACATATAAATATATAAATATAAATAAATAAATAAA
DNA 2: TTTATTTATTTATTTATATTTATATATTTATATGTA
For the molecule B19, the binding signal was 9.74 ln median PBM intensity, better of two orientations.

B20: XGTACX_negctrl_site426 (dsDNA)
DNA 1: TATTAAAATTAAAAAAAAAAAAAAAAGCAATAAAAA
DNA 2: TTTTTATTGCTTTTTTTTTTTTTTTTAATTTTAATA
With B20, the binding signal is 9.73 ln median PBM intensity, better of two orientations.

B21: XGTACX_negctrl_site69 (dsDNA)
DNA 1: AGAGTAGGAAATGGAAAAATAAAATAAATAAATAAA
DNA 2: TTTATTTATTTATTTTATTTTTCCATTTCCTACTCT
On to B21, for which the binding signal was 9.72 ln median PBM intensity, better of two orientations.

B22: XGTACX_negctrl_site200 (dsDNA)
DNA 1: GTCCTTATGGATGATAAATTATTTTAAATATTCTAT
DNA 2: ATAGAATATTTAAAATAATTTATCATCCATAAGGAC
In the case of B22, the binding signal was 9.79 ln median PBM intensity, better of two orientations.

B23: XGTACX_negctrl_site374 (dsDNA)
DNA 1: AATAAACATTATTTTCGTATTCCAATTCTTTTTTTT
DNA 2: AAAAAAAAGAATTGGAATACGAAAATAATGTTTATT
Regarding B23, the binding signal is 9.74 ln median PBM intensity, better of two orientations.

B24: XGTACX_negctrl_site555 (dsDNA)
DNA 1: TTCTTTATTTATCATTATAAGAAGAGTTGATTTGTT
DNA 2: AACAAATCAACTCTTCTTATAATGATAAATAAAGAA
As for B24, the binding signal is 9.71 ln median PBM intensity, better of two orientations.

B25: XGTACX_negctrl_site395 (dsDNA)
DNA 1: TTATTAGAGATGTTAAGATATAGGGATAATTTCGAT
DNA 2: ATCGAAATTATCCCTATATCTTAACATCTCTAATAA
On to B25, for which the binding signal was 9.76 ln median PBM intensity, better of two orientations.

B26: XGTACX_negctrl_site187 (dsDNA)
DNA 1: AATATATATATATATATATATATTTCAATATATAAA
DNA 2: TTTATATATTGAAATATATATATATATATATATATT
As for B26, the binding signal was 9.75 ln median PBM intensity, better of two orientations.

B27: XGTACX_negctrl_site461 (dsDNA)
DNA 1: ATGAATTTTTCTCTACAAAAGGATATAATAAAAATA
DNA 2: TATTTTTATTATATCCTTTTGTAGAGAAAAATTCAT
As to B27, the binding signal is 9.76 ln median PBM intensity, better of two orientations.

B28: XGTACX_negctrl_site347 (dsDNA)
DNA 1: AAAATGGAACTAGGAATAATATAAGAAGATAAAAGG
DNA 2: CCTTTTATCTTCTTATATTATTCCTAGTTCCATTTT
Take B28: the binding signal is 9.72 ln median PBM intensity, better of two orientations.

B29: XGTACX_negctrl_site572 (dsDNA)
DNA 1: TTAGGAAGCTCACAAAATAAAGTGAAAAGAAGAAAA
DNA 2: TTTTCTTCTTTTCACTTTATTTTGTGAGCTTCCTAA
For B29, the binding signal was 9.76 ln median PBM intensity, better of two orientations.

B30: XGTACX_negctrl_site80 (dsDNA)
DNA 1: AAACATTTATCAATGAATCTTTTAATAAGTGTAAAG
DNA 2: CTTTACACTTATTAAAAGATTCATTGATAAATGTTT
Regarding B30, the binding signal was 9.73 ln median PBM intensity, better of two orientations.
